In paper PMC5340008 (BMC Biochemistry, 2017):

Biological target: Bacillus anthracis Bla1 β-lactamase (Bacillus anthracis)

BLIP [change], sequence (P35804 37-201 Y86A): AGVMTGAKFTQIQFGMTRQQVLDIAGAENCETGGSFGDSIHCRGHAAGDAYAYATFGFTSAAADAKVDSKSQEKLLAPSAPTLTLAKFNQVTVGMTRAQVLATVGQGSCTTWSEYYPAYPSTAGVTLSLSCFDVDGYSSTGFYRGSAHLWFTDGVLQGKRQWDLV

“BLIP [change] (from UniProt P35804 37-201) (natural protein)” was tested, and the Ki was 1.2 nM.
